Test results published in publication PMC4245941, “Timely binding of IHF and Fis to DARS2 regulates ATP–DnaA production and replication initiation” (Nucleic Acids Research, 2014).

Target: the molecule itself
Assay: native gel or EMSA; DnaA (ADP or ATP form) incubated at 30°C for 5 min in dissociation buffer (20 mM Tris-HCl pH 7.5, 100 mM potassium glutamate, 10 mM magnesium acetate, 2 mM ATP) with DARS2ΔRight or DARS2ΔRight/subFBS1 DNA (15 fmol) and poly (dI-dC), 5% PAGE; DnaA multimers form on the DNA; without or with IHF and Fis

B1: DnaA (wild type) (natural protein, Escherichia coli, UniProt P03004 1-467, looked up)
chain: MSLSLWQQCLARLQDELPATEFSMWIRPLQAELSDNTLALYAPNRFVLDWVRDKYLNNINGLLTSFCGADAPQLRFEVGTKPVTQTPQAAVTSNVAAPAQVAQTQPQRAAPSTRSGWDNVPAPAEPTYRSNVNVKHTFDNFVEGKSNQLARAAARQVADNPGGAYNPLFLYGGTGLGKTHLLHAVGNGIMARKPNAKVVYMHSERFVQDMVKALQNNAIEEFKRYYRSVDALLIDDIQFFANKERSQEEFFHTFNALLEGNQQIILTSDRYPKEINGVEDRLKSRFGWGLTVAIEPPELETRVAILMKKADENDIRLPGEVAFFIAKRLRSNVRELEGALNRVIANANFTGRAITIDFVREALRDLLALQEKLVTIDNIQKTVAEYYKIKVADLLSKRRSRSVARPRQMAMALAKELTNHSLPEIGDAFGGRDHTTVLHACRKIEQLREESHDIKEDFSNLIRTLSS
notes: DnaA, chromosomal replication initiator protein, Escherichia coli, wild type; Used loaded with ADP or ATP (not covalent); also called ADP–DnaA; ATP–DnaA
binding result: binds
